Results from patent US20110301327A1 (MANNKIND, published 2011).
Where two headings read alike, the source gives them in different places. Blank lines part the entries; values can stand above or below the binder they belong to. Where no end group is shown, it is not given here. [ ]: non-standard residue; d: D form. Orn = NCCC[C@H](N)C(=O)O; Nva = CCC[C@H](N)C(=O)O

Tests used:
HLA-A*0201 [1] = target: T1, HLA-A*0201 (human); test: T2 cell binding, flow cytometry
T1 construct: Empty class I on TAP-deficient T2 cells, stabilised by the added peptide; also called HLA-A2; MHC class I (A2 allele) on T2 cells

HLA-A*0201 [2] = target: T1, HLA-A*0201; test: T2 cell binding, flow cytometry; half-maximal binding
[3] = target: T2, HLA-A*0201 class I monomer (ITOPIA Epitope Discovery System plates); test: iTopia affinity assay (ED50)
T2 construct: Bought kit; for the PSMA series only HLA-A2 is implied; also called MHC monomer; HLA-A2

[4] = target: T2, HLA-A*0201 class I monomer (ITOPIA …); test: iTopia affinity assay
[5] = target: T2, HLA-A*0201 class I monomer (ITOPIA …); test: iTopia binding assay
HLA-A*0201 [6] = target: T1, HLA-A*0201; test: T2 cell binding, flow cytometry; remark: listed apart in the source

binding result (HLA-A*0201 [1]): binds
Binder: KLSEKIFYVL [SSX-2 41-50(A42L, Y50L)]

binding result (HLA-A*0201 [1]): binds
Binder: KLSEKIFYVV [SSX-2 41-50(A42L, Y50V)]

binding result (HLA-A*0201 [1]): binds
Binder: KLSEKIFYVX (Nle, norleucine, at position 10 (50)) [SSX-2 41-50(A42L, Y50(Nle))]

EC50 (HLA-A*0201 [2]): 17.8 µM
Binder: FVSEKIFYM [SSX2 41-49 (K41F, A42V, V49M)]

EC50 (HLA-A*0201 [2]): 13.9 µM
Binder: KVSEKIFYI [SSX2 41-49(A42V, V49I)]

EC50 (HLA-A*0201 [2]): 14 µM
Binder: KASEKIFYI [SSX2 41-49(V49I)]

EC50 (HLA-A*0201 [2]): 5.68 µM
Binder: KLSEKIFYI [SSX2 41-49(A42L, V49I)]

fold reduction of affinity against the native peptide [3]: ~3 fold
Binder: S[Nva]LQHLIGL [PRAME425-433 analog, Nva at P2]

binding result [4]: binds
Binder: SLLQHLIGA [PRAME425-433 analog, Ala at PO]

binding result [5]: binds
Binder: KLLQHLIGL (also called Lys P1 analog) [PRAME425-433 analog, Lys at P1]

binding result (HLA-A*0201 [6]): no binding
Binder: KASEKIFYX (C-terminal amide) [SSX2 41-49-NH2]

binding result (HLA-A*0201 [1]): binds
Binder: FLLMWITQC (also called Substitution of S157 with F) [NY-ESO-1 157-165 S157F]

binding result (HLA-A*0201 [1]): binds
Binder: KLLMWITQC (also called Substitution of S157 with K) [NY-ESO-1 157-165 S157K]

binding result (HLA-A*0201 [1]): binds
Binder: KLSEKIFYVX (Nva, norvaline, at position 10 (50)) [SSX-2 41-50(A42L, Y50(Nva))]

binding result [5]: binds
Binder: [Orn]LLQHLIGL [PRAME425-433 analog, Orn at P1]

binding result [5]: binds
Binder: XLLQHLIGL (Hse (homoserine) at P1) [PRAME425-433 analog, Hse at P1]
